The target of the experiment is Exchange Protein Activated by cAMP 1, purified recombinant wild type. Briefly: phase separation measured by centrifugation and A280 of the cleared supernatant; purified protein alone, with 30 uM cAMP; 5-25 uM protein at 50-250 mM NaCl, 25 mM Tris-HCl pH 8.8, 5 mM MgCl2; 20 °C, 15 min; 16,900 x g, 30 min.

Exchange Protein Activated by cAMP 1, purified recombinant wild type, sequence (O95398 whole entry): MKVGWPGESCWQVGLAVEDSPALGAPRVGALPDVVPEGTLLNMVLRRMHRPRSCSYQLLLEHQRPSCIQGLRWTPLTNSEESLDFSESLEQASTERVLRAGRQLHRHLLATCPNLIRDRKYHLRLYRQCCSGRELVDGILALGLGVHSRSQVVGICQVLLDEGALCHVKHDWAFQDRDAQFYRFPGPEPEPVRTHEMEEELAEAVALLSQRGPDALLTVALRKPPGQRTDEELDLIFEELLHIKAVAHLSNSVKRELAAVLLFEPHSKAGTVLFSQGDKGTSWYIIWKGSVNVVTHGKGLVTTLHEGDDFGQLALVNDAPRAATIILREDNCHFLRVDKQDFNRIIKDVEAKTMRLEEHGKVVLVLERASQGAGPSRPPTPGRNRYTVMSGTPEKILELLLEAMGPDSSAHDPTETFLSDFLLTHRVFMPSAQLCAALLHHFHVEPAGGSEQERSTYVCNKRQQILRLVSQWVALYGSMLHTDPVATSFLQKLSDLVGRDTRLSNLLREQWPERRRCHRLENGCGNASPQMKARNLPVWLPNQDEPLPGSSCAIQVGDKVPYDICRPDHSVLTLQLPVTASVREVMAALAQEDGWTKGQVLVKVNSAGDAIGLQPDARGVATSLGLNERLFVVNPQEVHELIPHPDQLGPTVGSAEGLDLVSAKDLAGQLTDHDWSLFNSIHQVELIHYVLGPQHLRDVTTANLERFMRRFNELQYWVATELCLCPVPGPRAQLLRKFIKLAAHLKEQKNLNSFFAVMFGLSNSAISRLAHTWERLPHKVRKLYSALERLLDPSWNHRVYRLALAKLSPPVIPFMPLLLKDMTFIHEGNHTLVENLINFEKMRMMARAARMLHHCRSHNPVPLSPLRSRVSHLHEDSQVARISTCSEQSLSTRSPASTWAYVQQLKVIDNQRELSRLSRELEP

Turning to “Exchange Protein Activated by cAMP 1, purified recombinant wild type (natural protein)”, the condensation ratio +cAMP/-cAMP at 150 mM salt stood at 2.5 and the percent of protein in condensates (150 mM salt, with cAMP) came to 50%.
